Results on seven sequences are retold here after the supplement of paper PMC11246515.

± gives the standard deviation of the averaged measurements.

The series is described as follows: total protein half-life in vivo (active degradation + dilution); higher = more stable protein.
[1] abbreviates: E. coli NCM3722 delta-clpP delta-lon delta-hslV, growth: N-lim chemostat, doubling time 6 h.
[2] abbreviates: E. coli NCM3722 delta-clpP, growth: N-lim chemostat, doubling time 6 h.
Setting [3] is: E. coli NCM3722 delta-hslV, growth: N-lim chemostat, doubling time 6 h.
Setting [4] is: E. coli NCM3722 delta-lon, growth: N-lim chemostat, doubling time 6 h.
Where [5] appears, read: E. coli NCM3722 delta-smpB, growth: N-lim chemostat, doubling time 6 h.
Where [6] appears, read: wild type E. coli NCM3722, growth: C-lim chemostat, doubling time 3 h.
Setting [7] is: wild type E. coli NCM3722, growth: C-lim chemostat, doubling time 6 h.
Where [8] appears, read: wild type E. coli NCM3722, growth: C-lim chemostat, doubling time 12 h.
Setting [9] is: wild type E. coli NCM3722, growth: N-lim chemostat, doubling time 6 h.
Where [10] appears, read: wild type E. coli NCM3722, growth: N-lim chemostat, doubling time 12 h.
[11] abbreviates: wild type E. coli NCM3722, growth: P-lim chemostat, doubling time 6 h.
Where [12] appears, read: wild type E. coli NCM3722, growth: P-lim chemostat, doubling time 12 h.

With “MESLLTLPLAGEARVRILQITDTHLFAQKHEALLGVNTWESYQAVLEAIRPHQHEFDLIVATGDLAQDQSSAAYQHFAEGIASFRAPCVWLPGNHDFQPAMYSALQDAGISPAKRVFIGEQWQILLLDSQVFGVPHGELSEFQLEWLERKLADAPERHTLLLLHHHPLPAGCSWLDQHSLRNAGELDTVLAKFPHVKYLLCGHIHQELDLDWNGRRLLATPSTCVQFKPHCSNFTLDTIAPGWRTLELHADGTLTTEVHRLADTRFQPDTASEGY [P0AEW4]”, the “total protein half-life in vivo” value is, setting by setting: under setting [1], 5.15 ± 0.77 h; under setting [2], 4.65 ± 0.26 h; under setting [3], 4.6 ± 0.28 h; under setting [4], 4.98 ± 0.096 h; under setting [5], 4.34 ± 0.65 h; under setting [6], 2.948 ± 0.017 h. In addition, the “total protein half-life in vivo” value was found to be 5.4 ± 0.74 h under setting [7]; 11.6 ± 1.3 h under setting [8]; 4.56 ± 0.88 h under setting [9]; 8.5 ± 0.45 h under setting [10]; 4.435 ± 0.035 h under setting [11]; 8.69 ± 0.43 h under setting [12].
On to “MSSSRPVFRSRWLPYLLVAPQLIITVIFFIWPAGEALWYSLQSVDPFGFSSQFVGLDNFVTLFHDSYYLDSFWTTIKFSTFVTVSGLLVSLFFAALVEYIVRGSRFYQTLMLLPYAVAPAVAAVLWIFLFNPGRGLITHFLAEFGYDWNHAQNSGQAMFLVVFASVWKQISYNFLFFYAALQSIPRSLIEAAAIDGAGPIRRFFKIALPLIAPVSFFLLVVNLVYAFFDTFPVIDAATSGGPVQATTTLIYKIYREGFTGLDLASSAAQSVVLMFLVIVLTVVQFRYVESKVRYQ”, for which the “total protein half-life in vivo” value under setting [11] was 5.34 h and the “total protein half-life in vivo” value under setting [12] came out at 11.9 ± 0.84 h.
For the sequence “MSKARRWVIIVLSLAVLVMIGINMAEKDDTAQVVVNNNDPTYKSEHTDTLVYNPEGALSYRLIAQHVEYYSDQAVSWFTQPVLTTFDKDKIPTWSVKADKAKLTNDRMLYLYGHVEVNALVPDSQLRRITTDNAQINLVTQDVTSEDLVTLYGTTFNSSGLKMRGNLRSKNAELIEKVRTSYEIQNKQTQP [P0ADV9]”, the “total protein half-life in vivo” value under setting [1] worked out at 5.91 ± 0.18 h; the “total protein half-life in vivo” value under setting [2] is 5.86 ± 0.15 h; the “total protein half-life in vivo” value under setting [3] is 5.92 ± 0.41 h; the “total protein half-life in vivo” value under setting [4] amounted to 5.82 ± 0.13 h; the “total protein half-life in vivo” value under setting [5] is 6.78 ± 0.24 h; the “total protein half-life in vivo” value under setting [7] was 5.98 ± 0.17 h. Besides, the “total protein half-life in vivo” value under setting [8] came out at 11.2 ± 1.9 h; the “total protein half-life in vivo” value under setting [9] was 5.55 ± 0.17 h; the “total protein half-life in vivo” value under setting [10] was determined as 11.1 ± 0.99 h; the “total protein half-life in vivo” value under setting [11] was found to be 5.85 ± 0.087 h; the “total protein half-life in vivo” value under setting [12] was determined as 11.98 ± 0.014 h.
Turning to “MRAKLLGIVLTTPIAISSFASTETLSFTPDNINADISLGTLSGKTKERVYLAEEGGRKVSQLDWKFNNAAIIKGAINWDLMPQISIGAAGWTTLGSRGGNMVDQDWMDSSNPGTWTDESRHPDTQLNYANEFDLNIKGWLLNEPNYRLGLMAGYQESRYSFTARGGSYIYSSEEGFRDDIGSFPNGERAIGYKQRFKMPYIGLTGSYRYEDFELGGTFKYSGWVESSDNDEHYDPGKRITYRSKVKDQNYYSVAVNAGYYVTPNAKVYVEGAWNRVTNKKGNTSLYDHNNNTSDYSKNGAGIENYNFITTAGLKYTF”, the “total protein half-life in vivo” value runs as follows: under setting [2], 6.57 ± 0.46 h; under setting [3], 6.305 ± 0.013 h; under setting [4], 6.712 ± 0.042 h; under setting [5], 5.81 ± 0.35 h; under setting [6], 3.21 ± 0.091 h; under setting [7], 6.17 ± 0.45 h. Moreover, the “total protein half-life in vivo” value under setting [8] came to 11.5 ± 0.18 h; the “total protein half-life in vivo” value under setting [9] came to 6.05 ± 0.22 h; the “total protein half-life in vivo” value under setting [10] was found to be 12.2 ± 2.6 h; the “total protein half-life in vivo” value under setting [11] is 6.51 ± 0.55 h; the “total protein half-life in vivo” value under setting [12] was determined as 13.498 ± 0.0072 h.
Consider “MNQTLLSSFGTPFERVENALAALREGRGVMVLDDEDRENEGDMIFPAETMTVEQMALTIRHGSGIVCLCITEDRRKQLDLPMMVENNTSAYGTGFTVTIEAAEGVTTGVSAADRITTVRAAIADGAKPSDLNRPGHVFPLRAQAGGVLTRGGHTEATIDLMTLAGFKPAGVLCELTNDDGTMARAPECIEFANKHNMALVTIEDLVAYRQAHERKAS [P0A7J0]”, for which the “total protein half-life in vivo” value is, setting by setting: under setting [1], 5.39 ± 0.59 h; under setting [2], 4.61 ± 0.68 h; under setting [3], 1.27 ± 0.23 h; under setting [4], 1.22 ± 0.28 h; under setting [5], 1.02 ± 0.1 h; under setting [6], 1.2 ± 0.25 h. For the same sequence, the “total protein half-life in vivo” value under setting [7] was found to be 1.2 ± 0.21 h; the “total protein half-life in vivo” value under setting [8] was 1.35 ± 0.13 h; the “total protein half-life in vivo” value under setting [9] turned out to be 1.291 ± 0.0046 h; the “total protein half-life in vivo” value under setting [10] is 1.52 ± 0.086 h; the “total protein half-life in vivo” value under setting [11] was found to be 0.987 h; the “total protein half-life in vivo” value under setting [12] was found to be 1.82 ± 1.1 h.
On to “MRNIIKLALAGLLSVSTFAVAAESSPEALRIGYQKGSIGMVLAKSHQLLEKRYPESKISWVEFPAGPQMLEALNVGSIDLGSTGDIPPIFAQAAGADLVYVGVEPPKPKAEVILVAENSPIKTVADLKGHKVAFQKGSSSHNLLLRALRQAGLKFTDIQPTYLTPADARAAFQQGNVDAWAIWDPYYSAALLQGGVRVLKDGTDLNQTGSFYLAARPYAEKNGAFIQGVLATFSEADALTRSQREQSIALLAKTMGLPAPVIASYLDHRPPTTIKPVNAEVAALQQQTADLFYENRLVPKKVDIRQRIWQPTQLEGKQL”, for which the “total protein half-life in vivo” value runs as follows: under setting [1], 5.27 ± 1.8 h; under setting [2], 5.07 ± 0.72 h; under setting [4], 4.66 ± 1.7 h; under setting [5], 5.32 ± 0.25 h; under setting [6], over 4 h; under setting [7], 4.74 ± 0.1 h. Also, the “total protein half-life in vivo” value came out at 8.06 h under setting [8], 5.64 h under setting [9] and 12.52 ± 0.069 h under setting [10].
Take “MAIEQTAITRATFDEVILPIYAPAEFIPVKGQGSRIWDQQGKEYVDFAGGIAVTALGHCHPALVNALKTQGETLWHISNVFTNEPALRLGRKLIEATFAERVVFMNSGTEANETAFKLARHYACVRHSPFKTKIIAFHNAFHGRSLFTVSVGGQPKYSDGFGPKPADIIHVPFNDLHAVKAVMDDHTCAVVVEPIQGEGGVTAATPEFLQGLRELCDQHQALLVFDEVQCGMGRTGDLFAYMHYGVTPDILTSAKALGGGFPISAMLTTAEIASAFHPGSHGSTYGGNPLACAVAGAAFDIINTPEVLEGIQAKRQRFVDHLQKIDQQYDVFSDIRGMGLLIGAELKPQYKGRARDFLYAGAEAGVMVLNAGPDVMRFAPSLVVEDADIDEGMQRFAHAVAKVVGA”: the “total protein half-life in vivo” value by setting is: under setting [1], 5.24 ± 0.26 h; under setting [2], 4.41 ± 0.43 h; under setting [3], 4.47 ± 0.0086 h; under setting [4], 4.76 ± 0.3 h; under setting [5], 4.4 ± 0.099 h; under setting [6], 3.53 ± 0.35 h. The “total protein half-life in vivo” value under setting [7] came to 6.1 ± 0.17 h; the “total protein half-life in vivo” value under setting [8] worked out at 9.18 ± 0.29 h; the “total protein half-life in vivo” value under setting [9] stood at 4.42 ± 0.3 h; the “total protein half-life in vivo” value under setting [10] turned out to be 7.08 ± 0.24 h; the “total protein half-life in vivo” value under setting [11] came to 5.71 ± 0.09 h; the “total protein half-life in vivo” value under setting [12] stood at 11.36 ± 0.11 h.
